# Source: patent US20190177366A1 (published 2019)
# Like-named read-outs stand apart in the source and are kept apart here. Bridge positions count the residues as written; N and C are the ends. Square brackets hold non-standard residues; d marks the D form. Ends that are not written are not given here. * marks the point of attachment. hArg = N=C(N)NCCCC[C@H](N)C(=O)O; Pentanoyl = CCCCC(=O)*
# B1: Compound 28 (peptide)
# peptide: SGDLMPWNLVRIGLLR
# notes: Printed without N-terminal cap and without C-terminal amide
# B2: Compound 26 (peptide)
# peptide: H-SGCFIPWNLQRIGLLC-NH2
# modifications: disulfide 3-16 (inferred)
# B3: Compound 25 (peptide)
# peptide: Ac-TVFTSWEEYLDWVGSGGCRLPWNLQRIGLPC-NH2
# modifications: disulfide 18-31 (inferred)
# B4: Compound 38 (peptide)
# peptide: Ac-TVFTSWEEYLDWVGSGGCFLPWNLQRIGLLC-NH2
# modifications: disulfide 18-31 (inferred)
# B5: Compound 23 (peptide)
# peptide: Ac-SPCRVGYTPC-NH2
# modifications: disulfide 3-10 (inferred)
# B6: Phage-displayed Pep2-8 (on p8) (peptide)
# chain: TVFTSWEEYLDWV
# notes: Peptide fused to the N-terminus of p8 on M13 phage; also called phage displaying Pep2-8; not shown: M13 major coat protein p8
# B7: Compound 109 (peptide)
# peptide: Ac-C[dR]LPWNLQRIGLPC-NH2
# modifications: disulfide 1-14
# SMILES: CC[C@H](C)[C@@H]1NC(=O)[C@H](CCCNC(=N)N)NC(=O)[C@H](CCC(N)=O)NC(=O)[C@H](CC(C)C)NC(=O)[C@H](CC(N)=O)NC(=O)[C@H](Cc2c[nH]c3ccccc23)NC(=O)[C@@H]2CCCN2C(=O)[C@H](CC(C)C)NC(=O)[C@@H](CCCNC(=N)N)NC(=O)[C@@H](NC(C)=O)CSSC[C@@H](C(N)=O)NC(=O)[C@@H]2CCCN2C(=O)[C@H](CC(C)C)NC(=O)CNC1=O
# B8: Compound 108 (peptide)
# peptide: Ac-CR[dL]PWNLQRIGLPC-NH2
# modifications: disulfide 1-14
# SMILES: CC[C@H](C)[C@@H]1NC(=O)[C@H](CCCNC(=N)N)NC(=O)[C@H](CCC(N)=O)NC(=O)[C@H](CC(C)C)NC(=O)[C@H](CC(N)=O)NC(=O)[C@H](Cc2c[nH]c3ccccc23)NC(=O)[C@@H]2CCCN2C(=O)[C@@H](CC(C)C)NC(=O)[C@H](CCCNC(=N)N)NC(=O)[C@@H](NC(C)=O)CSSC[C@@H](C(N)=O)NC(=O)[C@@H]2CCCN2C(=O)[C@H](CC(C)C)NC(=O)CNC1=O
# B9: K9gvpep4 (peptide)
# peptide: SGCRLPWNLQRIGLPC
# modifications: not fully specified (bridges); cysteine pairing not given here
# notes: Synthetic peptide
# B10: Compound 13 (peptide)
# peptide: Ac-TVFTSWEEYLDWVGGSGCWNLKRIGSQGC-NH2
# modifications: disulfide 18-29 (inferred)
# B11: Compound 14 (peptide)
# peptide: Ac-TVFTSWEEYLDWVGSGGCWNLKRIGSQGC-NH2
# modifications: disulfide 18-29 (inferred)
# B12: Compound 192 (peptide)
# peptide: Ac-WNLV[hArg]IGLLR-NH2
# notes: Ac-WNLV(homoR)IGLLR-NH2
# B13: Compound 112 (peptide)
# peptide: Pentanoyl-WNLVRIGLTR-NH2
# SMILES: CCCCC(=O)N[C@@H](Cc1c[nH]c2ccccc12)C(=O)N[C@@H](CC(N)=O)C(=O)N[C@@H](CC(C)C)C(=O)N[C@H](C(=O)N[C@@H](CCCNC(=N)N)C(=O)N[C@H](C(=O)NCC(=O)N[C@@H](CC(C)C)C(=O)N[C@H](C(=O)N[C@@H](CCCNC(=N)N)C(N)=O)[C@@H](C)O)[C@@H](C)CC)C(C)C
# B14: Compound 53 (peptide)
# peptide: Ac-WNLVRIGLLR-NH2
# B15: Compound 8 (peptide)
# peptide: Ac-TVFTSWEEYLDWVGGSGKLWNLGRV-NH2
# B16: Compound 9 (peptide)
# peptide: Ac-TVFTSWEEYLDWVGSGGKLWNLGRV-NH2
# B17: Compound 2 (peptide)
# peptide: Ac-TVFTSWEEYLDWVGSGCWNLKRIGSQGC-NH2
# modifications: disulfide 17-28
# SMILES: CC[C@H](C)[C@@H]1NC(=O)[C@H](CCCNC(=N)N)NC(=O)[C@H](CCCCN)NC(=O)[C@H](CC(C)C)NC(=O)[C@H](CC(N)=O)NC(=O)[C@H](Cc2c[nH]c3ccccc23)NC(=O)[C@@H](NC(=O)CNC(=O)[C@H](CO)NC(=O)CNC(=O)[C@@H](NC(=O)[C@H](Cc2c[nH]c3ccccc23)NC(=O)[C@H](CC(=O)O)NC(=O)[C@H](CC(C)C)NC(=O)[C@H](Cc2ccc(O)cc2)NC(=O)[C@H](CCC(=O)O)NC(=O)[C@H](CCC(=O)O)NC(=O)[C@H](Cc2c[nH]c3ccccc23)NC(=O)[C@H](CO)NC(=O)[C@@H](NC(=O)[C@H](Cc2ccccc2)NC(=O)[C@@H](NC(=O)[C@@H](NC(C)=O)[C@@H](C)O)C(C)C)[C@@H](C)O)C(C)C)CSSC[C@@H](C(N)=O)NC(=O)CNC(=O)[C@H](CCC(N)=O)NC(=O)[C@H](CO)NC(=O)CNC1=O
# B18: Compound 11 (peptide)
# peptide: Ac-TVFTSWEEYLDWVGSGCWNLGRIGSQGC-NH2
# modifications: disulfide 17-28 (inferred)
# B19: Compound 12 (peptide)
# peptide: Ac-TVFTSWEEYLDWVGSGCWNLKRVGSQGC-NH2
# modifications: disulfide 17-28 (inferred)
# B20: Compound 20 (peptide)
# peptide: Ac-TVFTSWEEYLDWVGSGDLMPWNLVRIGLLR-NH2
# notes: also called Pep2-8p7; Pep2-8_K9gvpep7
# B21: Compound 122 (peptide)
# peptide: Ac-SGDLMPWNLVRIGLLR-NH2
# B22: Compound 229 (peptide)
# peptide: Ac-MESFPGWNLV[hArg]IGLLR-NH2
# SMILES: CC[C@H](C)[C@H](NC(=O)[C@H](CCCCNC(=N)N)NC(=O)[C@@H](NC(=O)[C@H](CC(C)C)NC(=O)[C@H](CC(N)=O)NC(=O)[C@H](Cc1c[nH]c2ccccc12)NC(=O)CNC(=O)[C@@H]1CCCN1C(=O)[C@H](Cc1ccccc1)NC(=O)[C@H](CO)NC(=O)[C@H](CCC(=O)O)NC(=O)[C@H](CCSC)NC(C)=O)C(C)C)C(=O)NCC(=O)N[C@@H](CC(C)C)C(=O)N[C@@H](CC(C)C)C(=O)N[C@@H](CCCNC(=N)N)C(N)=O
# B23: Compound 19 (peptide)
# peptide: Ac-TVFTSWEEYLDWVGSGCRLPWNLQRIGLPC-NH2
# modifications: disulfide 17-30 (inferred)
# notes: also called Pep2-8p4; Pep2-8_K9gvpep4
# B24: Compound 57 (peptide)
# peptide: Ac-DLMPWNLVRIALLR-NH2
# What was measured:
# [1] = target: T1, human PCSK9 (proprotein convertase subtilisin/kexin type 9), His-tagged, full-length (human, UniProt A8T644 31-152; Q8NBP7 153-692, limits assumed); assay: SPR, Biacore T100, His-tagged protein captured on NTA chip (Method 1)
# T1 construct: The secreted protein is the prodomain plus the catalytic/Cys-rich part (N-terminus S153) after autocleavage; also called His-PCSK9; NARC-1
# [2] = target: T1, human PCSK9 (proprotein convertase …); assay: TR-FRET competition vs EGF(A)-Fc on His-PCSK9
# [3] = target: T1, human PCSK9 (proprotein convertase …); assay: SPR, Biacore T100, NTA capture, single cycle kinetics (Method 2)
# [4] = target: T2, proprotein convertase subtilisin/kexin type 9 (PCSK9) (human, UniProt Q8NBP7 31-152); assay: phage ELISA
# T2 construct: domain: prodomain; Recombinant; tag not written as a part; also called rec.PCSK9; His-PCSK9
# [5] = target: T3, His-tagged, full-length PCSK9 (human, UniProt A8T644 31-152; Q8NBP7 153-692); assay: TR-FRET competition; competitor EGF(A)-Fc on His-PCSK9
# T3 construct: Target protein of the PCSK9/EGF(A) TR-FRET assay (10 nM); also called His-PCSK9; proprotein convertase subtilisin/kexin type 9
# His-tagged PCSK9Δhelix = target: T4, His-tagged PCSK9Δhelix (human, UniProt Q8NBP7 31-152; Q8NBP7 168-692); assay: TR-FRET competition; competitor Ab20 on His-PCSK9Δhelix
# T4 construct: Human PCSK9 M1-Q692 with engineered TEV site, cleaved by TEV protease; Target protein of the PCSK9Δhelix/Ab20 TR-FRET assay (1.25 nM); also called His-PCSK9Δhelix
# [6] = target: T2, proprotein convertase subtilisin/kexin …; assay: phage competition ELISA
# PCSK9Δhelix [7] = target: T5, PCSK9Δhelix (human, UniProt Q8NBP7 31-152); assay: SPR
# T5 construct: domain: prodomain; Construct M1-Q692 with engineered TEV site, cut with TEV; His-tagged (tag not written as a part); also called His-PCSK9Δhelix; open groove PCSK9Δhelix
# PCSK9Δhelix [8] = target: T5, PCSK9Δhelix; assay: TR-FRET competition, Ab20 as competitor
# [9] = target: T1, human PCSK9 (proprotein convertase …); assay: TR-FRET competition vs EGF(A)-Fc on His-PCSK9; remark: listed apart in the source
# [10] = target: T6, His-tagged, full-length PCSK9 (human, UniProt Q8NBP7 31-152; Q8NBP7 153-692); assay: TR-FRET competition, His-PCSK9; competitor EGF(A)-Fc
# T6 construct: Target protein of the PCSK9/EGF(A) TR-FRET assay (10 nM); also called His-PCSK9
# [11] = target: T1, human PCSK9 (proprotein convertase …); assay: TR-FRET competition vs EGF(A)-Fc on His-PCSK9; remark: listed apart in the source
# [12] = target: T7, PCSK9Δhelix (human PCSK9 lacking the P' helix, His-tagged) (human, UniProt Q8NBP7 31-152; Q8NBP7 168-692); assay: TR-FRET competition vs Ab20 on His-PCSK9Δhelix
# T7 construct: Construct M1-Q692 with engineered TEV site (Y166, R167 deleted, ENLYFQS inserted between R165 and A168), cleaved by TEV protease; new N-terminus of the catalytic domain is S-A168; also called His-PCSK9Δhelix
# T7 sequence (Q8NBP7 31-152, stated change not applied, chain 1 of 2): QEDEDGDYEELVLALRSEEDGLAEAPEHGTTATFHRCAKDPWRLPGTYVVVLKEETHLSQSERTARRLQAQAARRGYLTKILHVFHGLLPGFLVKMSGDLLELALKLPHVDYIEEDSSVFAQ
# T7 sequence (Q8NBP7 other isoform, or with tags, fused parts or gaps mutant, chain 2 of 2): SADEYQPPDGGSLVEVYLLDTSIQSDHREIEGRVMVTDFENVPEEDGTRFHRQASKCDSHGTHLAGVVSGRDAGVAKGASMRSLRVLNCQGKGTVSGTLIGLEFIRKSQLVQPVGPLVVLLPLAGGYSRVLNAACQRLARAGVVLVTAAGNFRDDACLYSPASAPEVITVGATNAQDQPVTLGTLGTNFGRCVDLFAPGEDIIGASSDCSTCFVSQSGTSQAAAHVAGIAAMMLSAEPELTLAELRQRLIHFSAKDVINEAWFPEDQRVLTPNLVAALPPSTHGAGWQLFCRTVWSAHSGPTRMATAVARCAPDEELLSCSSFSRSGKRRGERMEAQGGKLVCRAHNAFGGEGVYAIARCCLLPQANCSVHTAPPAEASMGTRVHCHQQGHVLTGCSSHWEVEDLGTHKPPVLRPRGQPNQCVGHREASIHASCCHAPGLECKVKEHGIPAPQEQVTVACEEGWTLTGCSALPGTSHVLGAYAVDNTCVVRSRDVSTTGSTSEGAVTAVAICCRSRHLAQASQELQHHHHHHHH
# T5 sequence (Q8NBP7 31-152 limits assumed, stated change not applied, form in doubt, chain 1 of 2): as the sequence (Q8NBP7 31-152, stated change not applied, chain 1 of 2) above
# T5 sequence (Q8NBP7 other isoform, or with tags, fused parts or gaps mutant limits assumed, form in doubt, chain 2 of 2): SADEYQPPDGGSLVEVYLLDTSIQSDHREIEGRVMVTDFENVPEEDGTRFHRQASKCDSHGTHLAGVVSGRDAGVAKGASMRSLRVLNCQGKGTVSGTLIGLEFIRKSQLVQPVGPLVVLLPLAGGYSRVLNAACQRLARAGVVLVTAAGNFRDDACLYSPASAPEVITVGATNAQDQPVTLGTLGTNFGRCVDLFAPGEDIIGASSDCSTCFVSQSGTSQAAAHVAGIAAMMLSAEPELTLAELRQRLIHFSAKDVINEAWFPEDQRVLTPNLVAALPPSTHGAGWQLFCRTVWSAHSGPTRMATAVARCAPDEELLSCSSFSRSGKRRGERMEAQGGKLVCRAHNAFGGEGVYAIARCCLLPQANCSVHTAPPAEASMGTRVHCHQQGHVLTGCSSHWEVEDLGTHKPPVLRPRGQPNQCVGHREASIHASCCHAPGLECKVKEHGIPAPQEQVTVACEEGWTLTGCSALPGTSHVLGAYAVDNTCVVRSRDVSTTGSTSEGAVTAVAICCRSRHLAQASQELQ
# T1 sequence (A8T644 31-152 limits assumed, chain 1 of 2): as the sequence (Q8NBP7 31-152, stated change not applied, chain 1 of 2) above
# T1 sequence (A8T644 other isoform, or with tags, fused parts or gaps limits assumed, chain 2 of 2): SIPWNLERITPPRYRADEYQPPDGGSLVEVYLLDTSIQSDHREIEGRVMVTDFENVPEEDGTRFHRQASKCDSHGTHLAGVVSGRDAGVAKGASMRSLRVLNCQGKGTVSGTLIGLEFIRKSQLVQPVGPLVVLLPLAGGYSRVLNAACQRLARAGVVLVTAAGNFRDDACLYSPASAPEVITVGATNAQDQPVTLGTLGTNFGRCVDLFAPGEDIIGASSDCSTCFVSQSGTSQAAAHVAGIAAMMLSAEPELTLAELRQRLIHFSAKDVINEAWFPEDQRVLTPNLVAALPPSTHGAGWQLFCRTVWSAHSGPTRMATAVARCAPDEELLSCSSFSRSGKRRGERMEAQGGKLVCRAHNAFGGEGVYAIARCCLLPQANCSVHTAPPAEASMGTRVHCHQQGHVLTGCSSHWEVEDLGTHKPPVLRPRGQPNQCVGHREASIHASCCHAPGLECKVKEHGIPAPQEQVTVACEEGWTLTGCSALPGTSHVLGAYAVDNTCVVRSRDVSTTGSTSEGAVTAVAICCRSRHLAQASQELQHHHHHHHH
# T3 sequence (A8T644 31-152 limits assumed, chain 1 of 2): as the sequence (Q8NBP7 31-152, stated change not applied, chain 1 of 2) above
# T3 sequence (A8T644 other isoform, or with tags, fused parts or gaps limits assumed, chain 2 of 2): as the sequence (A8T644 other isoform, or with tags, fused parts or gaps limits assumed, chain 2 of 2) above
# T4 sequence (Q8NBP7 31-152, stated change not applied, chain 1 of 2): as the sequence (Q8NBP7 31-152, stated change not applied, chain 1 of 2) above
# T4 sequence (Q8NBP7 other isoform, or with tags, fused parts or gaps mutant, chain 2 of 2): as the sequence (Q8NBP7 other isoform, or with tags, fused parts or gaps mutant, chain 2 of 2) above
# T2 sequence (Q8NBP7 31-152 limits assumed, chain 1 of 2): as the sequence (Q8NBP7 31-152, stated change not applied, chain 1 of 2) above
# T2 sequence (Q8NBP7 153-692 limits assumed, chain 2 of 2): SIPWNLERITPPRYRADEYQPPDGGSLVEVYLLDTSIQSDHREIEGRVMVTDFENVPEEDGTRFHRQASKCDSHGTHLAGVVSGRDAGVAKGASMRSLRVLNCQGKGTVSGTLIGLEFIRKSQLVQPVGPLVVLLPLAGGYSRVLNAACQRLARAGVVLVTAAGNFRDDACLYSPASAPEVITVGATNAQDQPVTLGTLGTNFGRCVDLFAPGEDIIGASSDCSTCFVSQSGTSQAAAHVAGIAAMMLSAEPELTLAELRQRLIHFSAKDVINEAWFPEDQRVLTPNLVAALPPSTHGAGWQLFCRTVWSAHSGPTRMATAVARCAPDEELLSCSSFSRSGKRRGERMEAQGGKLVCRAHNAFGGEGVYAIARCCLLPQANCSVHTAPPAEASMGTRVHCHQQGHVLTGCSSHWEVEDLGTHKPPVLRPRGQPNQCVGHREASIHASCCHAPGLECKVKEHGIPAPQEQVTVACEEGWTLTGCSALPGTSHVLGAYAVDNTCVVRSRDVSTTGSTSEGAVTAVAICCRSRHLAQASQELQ
# T6 sequence (Q8NBP7 31-152, chain 1 of 2): as the sequence (Q8NBP7 31-152, stated change not applied, chain 1 of 2) above
# T6 sequence (Q8NBP7 other isoform, or with tags, fused parts or gaps, chain 2 of 2): as the sequence (A8T644 other isoform, or with tags, fused parts or gaps limits assumed, chain 2 of 2) above
binder,measurement,setting,value
B1,Kd,[1],46100 nM
B2,Kd,[1],29000 nM
B3,IC50,[2],781 nM
B4,IC50,[2],471 nM
B5,Kd,[3],5740 nM
B6,binding result,[4],binds
B7,IC50,[5],> 50000 nM
same,IC50,His-tagged PCSK9Δhelix,1670 nM
B8,IC50,[5],> 50000 nM
same,IC50,His-tagged PCSK9Δhelix,28200 nM
B9,binding result,[6],binds
B10,IC50,[2],10 nM
B11,IC50,[2],9 nM
B12,fold improvement of binding affinity against Compound 53,PCSK9Δhelix [7],14 fold
B13,IC50,PCSK9Δhelix [8],< 10000 nM
B14,fold reduction of binding affinity against Compound 35,PCSK9Δhelix [7],10 fold
B15,IC50,[9],1030 nM
B16,IC50,[9],390 nM
B17,IC50,[2],110 nM
same,Kd,[3],30.3 nM
B18,IC50,[2],340 nM
B19,IC50,[2],190 nM
B20,IC50,[9],37 nM
same,Kd,[1],5.56 nM
B21,IC50,[10],≥ 50000 nM
B22,fold improvement of affinity against Compound 192,PCSK9Δhelix [8],> 6 fold
B23,IC50,[2],9 nM
same,Kd,[1],2.07 nM
B24,IC50,[11],> 50000 nM
same,IC50,[12],49500 nM
